According to the FLAb antibody collection (doi:10.7554/elife.23156):

B1: scFv; the commonest letter at each place (parent)
chain 1: EVKLDETGGGLVQPGRPMKLSCVASGFTFSDYWMNWVRQSPEKGLEWVAQIRNKPYNYETYYSDSVKGRFTISRDDSKSSVYLQMNNLRVEDMGIYYCTGSYYGMDYWGQGTSVTVS
chain 2: DVVMTQTPLSLPVSLGDQASISCRSSQSLVHSNGNTYLRWYLQKPGQSPKVLIYKVSNRFSGVPDRFSGSGSGTDFTLKISRVEAEDLGVYFCSQSTHVPWTFGGGTKLEIK

Key:
fluorescein = variants of: B1; assay: Kd (Tite-Seq); settings: with fluorescein; format: scFv 4-4-20, heavy + light
[1] = variants of: B1; assay: yeast surface expression (ratio to wild type); higher = more expressed; settings: format: scFv 4-4-20, heavy + light

| Variant | Kd (fluorescein) [µM] | yeast surface expression [1] |
| --- | --- | --- |
| chain 1 EVKLDETGGGLVQPGRPMKLSCVASGFTFSDYWMNWVRQSPEKGLEWVAQIRNKPYNYETYYSDSVKGRFTISRDDSKSSVYLQMNNLRVEDMGIYYCTASYYLMMYWGQGTSVTVS chain 2 DVVMTQTPLSLPVSLGDQASISCRSSQSLVHSNGNTYLRWYLQKPGQSPKVLIYKVSNRFSGVPDRFSGSGSGTDFTLKISRVEAEDLGVYFCSQSTHVPWTFGGGTKLEIK [chain 1 G100A G104L D106M] | ≥ 10 | 0.244 |
| chain 1 EVKLDETGGGLVQPGRPMKLSCVASGFTFSDYWMEWVRQSPEKGLEWVAQIRNKPYNYETYYSDSVKGRFTISRDDSKSSVYLQMNNLRVEDMGIYYCTGSYYGMDYWGQGTSVTVS chain 2 DVVMTQTPLSLPVSLGDQASISCRSSQSLVHSNGNTYLRWYLQKPGQSPKVLIYKVSNRFSGVPDRFSGSGSGTDFTLKISRVEAEDLGVYFCSQSTHVPWTFGGGTKLEIK [chain 1 N35E] | ≥ 10 | 0.802 |
| chain 1 EVKLDETGGGLVQPGRPMKLSCVASGFTFSDYWMNWVRQSPEKGLEWVAQIRNKPYNYETYYSDSVKGRFTISRDDSKSSVYLQMNNLRVEDMGIYYCTGSYYAMQEWGQGTSVTVS chain 2 DVVMTQTPLSLPVSLGDQASISCRSSQSLVHSNGNTYLRWYLQKPGQSPKVLIYKVSNRFSGVPDRFSGSGSGTDFTLKISRVEAEDLGVYFCSQSTHVPWTFGGGTKLEIK [chain 1 G104A D106Q Y107E] | ≥ 10 | 0.519 |
| chain 1 EVKLDETGGGLVQPGRPMKLSCVASGFTFSDYWANWIRQSPEKGLEWVAQIRNKPYNYETYYSDSVKGRFTISRDDSKSSVYLQMNNLRVEDMGIYYCTGSYYGMDYWGQGTSVTVS chain 2 DVVMTQTPLSLPVSLGDQASISCRSSQSLVHSNGNTYLRWYLQKPGQSPKVLIYKVSNRFSGVPDRFSGSGSGTDFTLKISRVEAEDLGVYFCSQSTHVPWTFGGGTKLEIK [chain 1 M34A V37I] | 0.495 | 0.837 |
| chain 1 EVKLDETGGGLVQPGRPMKLSCVASGFTFSDYWMNWVRQSPEKGLEWVAQIRNKPYNYETYYSDSVKGRFTISRDDSKSSVYLQMNNLRVEDMGIYYCTQSYYGMDYWCQGTSVTVS chain 2 DVVMTQTPLSLPVSLGDQASISCRSSQSLVHSNGNTYLRWYLQKPGQSPKVLIYKVSNRFSGVPDRFSGSGSGTDFTLKISRVEAEDLGVYFCSQSTHVPWTFGGGTKLEIK [chain 1 G100Q G109C] | ≥ 10 | 0.226 |
| chain 1 EVKLDETGGGLVQPGRPMKLSCVASGFTFSTYEMNWVRQSPEKGLEWVAQIRNKPYNYETYYSDSVKGRFTISRDDSKSSVYLQMNNLRVEDMGIYYCTGSYYGMDYWGQGTSVTVS chain 2 DVVMTQTPLSLPVSLGDQASISCRSSQSLVHSNGNTYLRWYLQKPGQSPKVLIYKVSNRFSGVPDRFSGSGSGTDFTLKISRVEAEDLGVYFCSQSTHVPWTFGGGTKLEIK [chain 1 D31T W33E] | ≥ 10 | 0.544 |

Continued, in another order:

| Kd (fluorescein) [µM] | Variant | yeast surface expression [1] |
| --- | --- | --- |
| ≥ 10 | chain 1 EVKLDETGGGLVQPGRPMKLSCVASGFTFSDYWMNWVRQSPEKGLEWVAQIRNKPYNYETYYSDSVKGRFTISRDDSKSSVYLQMNNLRVEDMGIYYCTGSYHGFDLWGQGTSVTVS chain 2 DVVMTQTPLSLPVSLGDQASISCRSSQSLVHSNGNTYLRWYLQKPGQSPKVLIYKVSNRFSGVPDRFSGSGSGTDFTLKISRVEAEDLGVYFCSQSTHVPWTFGGGTKLEIK [chain 1 Y103H M105F Y107L] | 0.92 |
| 0.0562 | chain 1 EVKLDETGGGLVQPGRPMKLSCVASGFTFHDYWMNWFRQSPEKGLEWVAQIRNKPYNYETYYSDSVKGRFTISRDDSKSSVYLQMNNLRVEDMGIYYCTGSYYGMDYWGQGTSVTVS chain 2 DVVMTQTPLSLPVSLGDQASISCRSSQSLVHSNGNTYLRWYLQKPGQSPKVLIYKVSNRFSGVPDRFSGSGSGTDFTLKISRVEAEDLGVYFCSQSTHVPWTFGGGTKLEIK [chain 1 S30H V37F] | 0.754 |
| ≥ 10 | chain 1 EVKLDETGGGLVQPGRPMKLSCVASGFTFSDYWMNWVRQSPEKGLEWVAQIRNKPYNYETYYSDSVKGRFTISRDDSKSSVYLQMNNLRVEDMGIYYCTGSYYGMDYEPQGTSVTVS chain 2 DVVMTQTPLSLPVSLGDQASISCRSSQSLVHSNGNTYLRWYLQKPGQSPKVLIYKVSNRFSGVPDRFSGSGSGTDFTLKISRVEAEDLGVYFCSQSTHVPWTFGGGTKLEIK [chain 1 W108E G109P] | 0.356 |
| ≥ 10 | chain 1 EVKLDETGGGLVQPGRPMKLSCVASGFTFSDYWMNWVRQSPEKGLEWVAQIRNKPYNYETYYSDSVKGRFTISRDDSKSSVYLQMNNLRVEDMGIYYCTGSYYGMDLWVQGTSVTVS chain 2 DVVMTQTPLSLPVSLGDQASISCRSSQSLVHSNGNTYLRWYLQKPGQSPKVLIYKVSNRFSGVPDRFSGSGSGTDFTLKISRVEAEDLGVYFCSQSTHVPWTFGGGTKLEIK [chain 1 Y107L G109V] | 0.298 |
| ≥ 10 | chain 1 EVKLDETGGGLVQPGRPMKLSCVASGFTFSDYWMFQVRQSPEKGLEWVAQIRNKPYNYETYYSDSVKGRFTISRDDSKSSVYLQMNNLRVEDMGIYYCTGSYYGMDYWGQGTSVTVS chain 2 DVVMTQTPLSLPVSLGDQASISCRSSQSLVHSNGNTYLRWYLQKPGQSPKVLIYKVSNRFSGVPDRFSGSGSGTDFTLKISRVEAEDLGVYFCSQSTHVPWTFGGGTKLEIK [chain 1 N35F W36Q] | 0.38 |
| ≥ 10 | chain 1 EVKLDETGGGLVQPGRPMKLSCVASGFTFSDYWMNTMRQSPEKGLEWVAQIRNKPYNYETYYSDSVKGRFTISRDDSKSSVYLQMNNLRVEDMGIYYCTGSYYGMDYWGQGTSVTVS chain 2 DVVMTQTPLSLPVSLGDQASISCRSSQSLVHSNGNTYLRWYLQKPGQSPKVLIYKVSNRFSGVPDRFSGSGSGTDFTLKISRVEAEDLGVYFCSQSTHVPWTFGGGTKLEIK [chain 1 W36T V37M] | 0.422 |
